Test results reported in the Human Domainome abundance scans (Beltran et al. 2025).
± gives the uncertainty stated by the source.

B1: POU domain, class 3, transcription factor 2, residues 356 to 411; numbered along this chain, P20265 (parent)
chain: KKRTSIEVSVKGALESHFLKCPKPSAQEITSLADSLQLEKEVVRVWFCNRRQKEKR

Variants of: B1
Experiment: abundance fitness (aPCA) (normalised: wild type 0, dead -1); higher = more abundant; growth selection in yeast, the domain comes from the species named
Details: Homo sapiens

For KKRTSIEVSVKGARESHFLKCPKPSAQEITSLADSLQLEKEVVRVWFCNRRQKEKR [L14R], which abundance fitness is on record?
The abundance fitness was -0.855 ± 0.092.

For KKRTSIEVSVKGATESHFLKCPKPSAQEITSLADSLQLEKEVVRVWFCNRRQKEKR [L14T], which abundance fitness is on record?
Its abundance fitness is -0.953 ± 0.22.

Which abundance fitness does the source give for KKRTSIEVSVKGAMESHFLKCPKPSAQEITSLADSLQLEKEVVRVWFCNRRQKEKR [L14M] here?
Its abundance fitness is -0.501 ± 0.13.

With KKRTSIEVSVKGAAESHFLKCPKPSAQEITSLADSLQLEKEVVRVWFCNRRQKEKR [L14A] as the variant, how does the abundance fitness read?
Its abundance fitness is -1.04 ± 0.22.

Which abundance fitness does the source give for KKRTSIEVSVKGAEESHFLKCPKPSAQEITSLADSLQLEKEVVRVWFCNRRQKEKR [L14E] here?
The abundance fitness was -0.794 ± 0.23.

Which abundance fitness does the source give for KKRTSIEVSVKGAFESHFLKCPKPSAQEITSLADSLQLEKEVVRVWFCNRRQKEKR [L14F] here?
Its abundance fitness is -0.814 ± 0.22.

Which abundance fitness does the source give for KKRTSIEVSVKGANESHFLKCPKPSAQEITSLADSLQLEKEVVRVWFCNRRQKEKR [L14N] here?
The abundance fitness was -0.632 ± 0.23.

Which abundance fitness does the source give for KKRTSIEVSVKGASESHFLKCPKPSAQEITSLADSLQLEKEVVRVWFCNRRQKEKR [L14S] here?
The abundance fitness was -0.923 ± 0.11.

With KKRTSIEVSVKGAHESHFLKCPKPSAQEITSLADSLQLEKEVVRVWFCNRRQKEKR [L14H] as the variant, how does the abundance fitness read?
The abundance fitness was -0.762 ± 0.2.

For KKRTSIEVSVKGAQESHFLKCPKPSAQEITSLADSLQLEKEVVRVWFCNRRQKEKR [L14Q], which abundance fitness is on record?
Its abundance fitness is -0.848 ± 0.21.

With KKRTSIEVSVKGAIESHFLKCPKPSAQEITSLADSLQLEKEVVRVWFCNRRQKEKR [L14I] as the variant, how does the abundance fitness read?
The abundance fitness was -0.706 ± 0.27.

With KKRTSIEVSVKGAGESHFLKCPKPSAQEITSLADSLQLEKEVVRVWFCNRRQKEKR [L14G] as the variant, how does the abundance fitness read?
Its abundance fitness is -0.882 ± 0.12.

Which abundance fitness does the source give for KKRTSIEVSVKGACESHFLKCPKPSAQEITSLADSLQLEKEVVRVWFCNRRQKEKR [L14C] here?
Its abundance fitness is -0.78 ± 0.2.

For KKRTSIEVSVKGAWESHFLKCPKPSAQEITSLADSLQLEKEVVRVWFCNRRQKEKR [L14W], which abundance fitness is on record?
Its abundance fitness is -0.915 ± 0.14.

For KKRTSIEVSVKGAVESHFLKCPKPSAQEITSLADSLQLEKEVVRVWFCNRRQKEKR [L14V], which abundance fitness is on record?
The abundance fitness was -0.641 ± 0.13.

Which abundance fitness does the source give for KKRTSIEVSVKGAKESHFLKCPKPSAQEITSLADSLQLEKEVVRVWFCNRRQKEKR [L14K] here?
Its abundance fitness is -0.933 ± 0.2.

Which abundance fitness does the source give for KKRTSIEVSVKGALDSHFLKCPKPSAQEITSLADSLQLEKEVVRVWFCNRRQKEKR [E15D] here?
Its abundance fitness is -0.623 ± 0.18.

For KKRTSIEVSVKGALCSHFLKCPKPSAQEITSLADSLQLEKEVVRVWFCNRRQKEKR [E15C], which abundance fitness is on record?
Its abundance fitness is -0.612 ± 0.18.

Which abundance fitness does the source give for KKRTSIEVSVKGALISHFLKCPKPSAQEITSLADSLQLEKEVVRVWFCNRRQKEKR [E15I] here?
The abundance fitness was -0.649 ± 0.14.

Which abundance fitness does the source give for KKRTSIEVSVKGALSSHFLKCPKPSAQEITSLADSLQLEKEVVRVWFCNRRQKEKR [E15S] here?
The abundance fitness was -0.959 ± 0.14.

For KKRTSIEVSVKGALASHFLKCPKPSAQEITSLADSLQLEKEVVRVWFCNRRQKEKR [E15A], which abundance fitness is on record?
Its abundance fitness is -0.88 ± 0.15.

With KKRTSIEVSVKGALKSHFLKCPKPSAQEITSLADSLQLEKEVVRVWFCNRRQKEKR [E15K] as the variant, how does the abundance fitness read?
Its abundance fitness is -0.83 ± 0.21.

Which abundance fitness does the source give for KKRTSIEVSVKGALGSHFLKCPKPSAQEITSLADSLQLEKEVVRVWFCNRRQKEKR [E15G] here?
Its abundance fitness is -0.885 ± 0.11.

With KKRTSIEVSVKGALWSHFLKCPKPSAQEITSLADSLQLEKEVVRVWFCNRRQKEKR [E15W] as the variant, how does the abundance fitness read?
The abundance fitness was -0.822 ± 0.15.

Which abundance fitness does the source give for KKRTSIEVSVKGALQSHFLKCPKPSAQEITSLADSLQLEKEVVRVWFCNRRQKEKR [E15Q] here?
Its abundance fitness is -0.527 ± 0.24.

Which abundance fitness does the source give for KKRTSIEVSVKGALMSHFLKCPKPSAQEITSLADSLQLEKEVVRVWFCNRRQKEKR [E15M] here?
The abundance fitness was -0.649 ± 0.15.

With KKRTSIEVSVKGALYSHFLKCPKPSAQEITSLADSLQLEKEVVRVWFCNRRQKEKR [E15Y] as the variant, how does the abundance fitness read?
Its abundance fitness is -0.777 ± 0.21.

For KKRTSIEVSVKGALHSHFLKCPKPSAQEITSLADSLQLEKEVVRVWFCNRRQKEKR [E15H], which abundance fitness is on record?
The abundance fitness was -0.805 ± 0.36.

With KKRTSIEVSVKGALNSHFLKCPKPSAQEITSLADSLQLEKEVVRVWFCNRRQKEKR [E15N] as the variant, how does the abundance fitness read?
Its abundance fitness is -0.693 ± 0.18.

For KKRTSIEVSVKGALPSHFLKCPKPSAQEITSLADSLQLEKEVVRVWFCNRRQKEKR [E15P], which abundance fitness is on record?
The abundance fitness was -1.04 ± 0.22.

With KKRTSIEVSVKGALTSHFLKCPKPSAQEITSLADSLQLEKEVVRVWFCNRRQKEKR [E15T] as the variant, how does the abundance fitness read?
The abundance fitness was -0.788 ± 0.17.

With KKRTSIEVSVKGALRSHFLKCPKPSAQEITSLADSLQLEKEVVRVWFCNRRQKEKR [E15R] as the variant, how does the abundance fitness read?
The abundance fitness was -1.02 ± 0.14.

Which abundance fitness does the source give for KKRTSIEVSVKGFLESHFLKCPKPSAQEITSLADSLQLEKEVVRVWFCNRRQKEKR [A13F] here?
Its abundance fitness is -0.019 ± 0.19.

For KKRTSIEVSVKGNLESHFLKCPKPSAQEITSLADSLQLEKEVVRVWFCNRRQKEKR [A13N], which abundance fitness is on record?
The abundance fitness was -0.211 ± 0.16.

With KKRTSIEVSVKGCLESHFLKCPKPSAQEITSLADSLQLEKEVVRVWFCNRRQKEKR [A13C] as the variant, how does the abundance fitness read?
The abundance fitness was -0.044 ± 0.11.

Which abundance fitness does the source give for KKRTSIEVSVKGILESHFLKCPKPSAQEITSLADSLQLEKEVVRVWFCNRRQKEKR [A13I] here?
Its abundance fitness is -0.184 ± 0.15.

With KKRTSIEVSVKGDLESHFLKCPKPSAQEITSLADSLQLEKEVVRVWFCNRRQKEKR [A13D] as the variant, how does the abundance fitness read?
Its abundance fitness is -0.356 ± 0.12.

For KKRTSIEVSVKGGLESHFLKCPKPSAQEITSLADSLQLEKEVVRVWFCNRRQKEKR [A13G], which abundance fitness is on record?
Its abundance fitness is -0.379 ± 0.088.

For KKRTSIEVSVKGVLESHFLKCPKPSAQEITSLADSLQLEKEVVRVWFCNRRQKEKR [A13V], which abundance fitness is on record?
Its abundance fitness is 0.042 ± 0.097.

For KKRTSIEVSVKGMLESHFLKCPKPSAQEITSLADSLQLEKEVVRVWFCNRRQKEKR [A13M], which abundance fitness is on record?
Its abundance fitness is 0.024 ± 0.14.

With KKRTSIEVSVKGWLESHFLKCPKPSAQEITSLADSLQLEKEVVRVWFCNRRQKEKR [A13W] as the variant, how does the abundance fitness read?
The abundance fitness was -0.422 ± 0.11.

With KKRTSIEVSVKGQLESHFLKCPKPSAQEITSLADSLQLEKEVVRVWFCNRRQKEKR [A13Q] as the variant, how does the abundance fitness read?
The abundance fitness was 0.011 ± 0.14.

For KKRTSIEVSVKGLLESHFLKCPKPSAQEITSLADSLQLEKEVVRVWFCNRRQKEKR [A13L], which abundance fitness is on record?
The abundance fitness was -0.074 ± 0.084.

Which abundance fitness does the source give for KKRTSIEVSVKGHLESHFLKCPKPSAQEITSLADSLQLEKEVVRVWFCNRRQKEKR [A13H] here?
The abundance fitness was -0.196 ± 0.2.

With KKRTSIEVSVKGPLESHFLKCPKPSAQEITSLADSLQLEKEVVRVWFCNRRQKEKR [A13P] as the variant, how does the abundance fitness read?
The abundance fitness was -0.442 ± 0.19.

Which abundance fitness does the source give for KKRTSIEVSVKGELESHFLKCPKPSAQEITSLADSLQLEKEVVRVWFCNRRQKEKR [A13E] here?
Its abundance fitness is -0.067 ± 0.1.

For KKRTSIEVSVKGSLESHFLKCPKPSAQEITSLADSLQLEKEVVRVWFCNRRQKEKR [A13S], which abundance fitness is on record?
The abundance fitness was -0.162 ± 0.09.
